The record followed here is paper PMC10865538 (2024).

B1: sdAb42 (VHH)
VHH: EVQLVESGGGLVQPGGSLRLSCAASGNTSTRHPMSWVRQAPGKGLELVASIGRGEITYYADSVKGRFTISRDNSKNTLYLQMNSLRAEDTAVYYCAVDAVFGGRHSHWGQGTLVTVSS
B2: sdAb39 (VHH)
VHH: EVQLVESGGGLVQPGGSLRLSCAASGNTSTRHPMSWVRQAPGKGLELVASIGRGEITYYADSVKGRFTISRDNSKNTLYLQMNSLRAEDTAVYYCAAFVDFLSRHNSRRPYPHGYWGQGTLVTVSS
B3: sdAb38 (VHH)
VHH: EVQLVESGGGLVQPGGSLRLSCAASGNTSTRHPMSWVRQAPGKGLELVASIGRGEITYYADSVKGRFTISRDNSKNTLYLQMNSLRAEDTAVYYCAVCLRSVFVNCHNFAYWGQGTLVTVSS
B4: sdAb12 (VHH)
VHH: EVQLVESGGGLVQPGGSLRLSCAASGNTFPARTMSWVRQAPGKGLELVASIGRGEITYYADSVKGRFTISRDNSKNTLYLQMNSLRAEDTAVYYCAAPAHGSWMSRRPHIYWGQGTLVTVSS
B5: sdAb10 (VHH)
VHH: EVQLVESGGGLVQPGGSLRLSCAASGNTFPARTMSWVRQAPGKGLELVASIGPGRSTIYADSVKGRFTISRDNSKNTLYLQMNSLRAEDTAVYYCAVAYTSGLALRGSFSYWGQGTLVTVSS

Usually EC50 stands for the concentration at which the effect is half-maximal. The low end stands for a more potent agent, the high end for a less potent agent.

For this experiment, the target named is SARS-CoV-2 S protein receptor-binding domain (R319-F541) (SARS-CoV-2, UniProt P0DTC2 319-541). Briefly: ELISA. (In general: An ELISA detects its analyte on a solid surface through an enzyme-linked reagent.)
On to B1, for which the EC50 amounted to 2 nM. To B2 belongs 4.3 nM; to B3, 46.1 nM. In turn, B4 displayed an EC50 of 60.1 nM. For B5 the value was 22.2 nM.
